Key:
[1] = molecular target: recombinant CsgA-His6 (E. coli) (UniProt P28307); assay: thioflavin T fluorescence quantified by confocal microscopy; monomeric CsgA with equimolar LL-37, sLL-37 or VIP and 20 µM ThT, over night at 37°C, washed; fluorescence relative to CsgA alone
[2] = molecular target: recombinant CsgA-His6 (E. coli) (UniProt P28307)

In the case of human antimicrobial peptide LL-37, the ThT fluorescence of CsgA with the peptide at 1:1, relative to CsgA alone (1 arbitrary unit) (arbitrary units) [1] is reported as 0.05 and the curli-mediated biofilm formation of E. coli in microtiter plates (crystal violet), reduction by 2.5 µM LL-37; the pair blocked is CsgA with CsgA (polymerization) [2] is reported as > 80%.
